Assay results from patent US20240067729A1 (published 2024).

B1: 785-hIgG1 (chimeric PAL785) (antibody, V domains shown)
VH: EVQLQESGPELVKPGTSVKMSCKASGYTFTSYVMHWVKQRPGQGLEWIGYINPYNDGSKYNEKFKGKATLTSDTSSSTAYMELSSLTSEDSAVYYCAKQTLDFWGQGTSVTVST
VL: DIVLTQSPASLAVSLGQRATISCRASESVEFYGTTLMQWYQQKPGQPPKLLIYAASNVESGVPARFSGSGSGTDFSLNIHPVEEGDIGMYFCQQSRKVPYTFGGGTKLEIK
B2: 767-hIgG1 (chimeric PAL767) (antibody, V domains shown)
VH: EVQLQESGPSLVKPSQTLSLTCSVTGDSITSGYWNWIRKFPGNKLEYMGYISYTGSTYYNPSLKRRISITRDTSKNQYYLQLNSVTTEDTATYYCASQGGWLQAMDYWGQGTSVTVSS
VL: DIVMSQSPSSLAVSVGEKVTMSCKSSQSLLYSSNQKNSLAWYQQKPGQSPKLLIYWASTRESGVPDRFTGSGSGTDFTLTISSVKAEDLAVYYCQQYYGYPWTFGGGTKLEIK
B3: 788-hIgG1 (chimeric PAL788) (antibody, V domains shown)
VH: QVQLQQPGAELVKPGASVKLSCKASGYTFTSNWMNWVKQRPGRGLEWIGRIHPSDSETHYHQKFKSKATLTVDKSSSTAYIQLSSLTSEDSAVYYCAHSSGDYGRDYWGQGTTLTVSS
VL: NIVLTQSPASLAVSLGQRATISCRASESVDSYGNSFMHWYQQKPGQPPKLLIYLASNLQSGVPARFSGSGSRTDFTLTIDPVEADDAATYYCQQNNEDPWTFGGGTKLEIK
B4: 769-hIgG1 (chimeric PAL769) (antibody, V domains shown)
VH: EVQLQESGAELVKPGASVTLSCTASGFNIKDTYMHWVKQRPEQGLEWIGRIDPANDNTKYDPKFQDKATITADTSSDTAYLRLSSLTSEDTAVYYCAREGYGGSYGEGYWGQGTTLTVSS
VL: SIVMTQTPKFLLVSAGDRVTITCKASQSVSNDVIWYQQKPGQSPKLLIYYASIRFTGVPDRFAGSGYGTDFTFTINTVQAEDLAVYFCQQDYNSPWTFGGGTKLEIK
B5: 752-hIgG1 (chimeric PAL752) (antibody, V domains shown)
VH: EVQLQESGAELARPGASVKLSCKASGHAFTSDSINWVKQRIGQGLEWIGEIYPRSGNPYYNEKFKGKATLTADKSSSTAYMELRSLTSEDSAVYFCATDYYGRYFDVWGTGTTVTVSS
VL: DIQMTQSSFSFSVSLGDRVTIICKASEDIYNRLAWYQQKPGNTPRLLISGATSLETGVPSRFSGSGSGKDYTLSITSLQTEDVATYYCQQYWSTPWTFGGGTKLEIK
B6: h769-tm2 (humanized 769-hIgG1 variant) (antibody, V domains shown)
VH: EVQLVQSGAEVKKPGATVKISCKVSGFNIKDTYMHWVQQAPGKGLEWMGLIDPANDNTIYAEKFQGRVTITADTSTDTAYMELSSLRSEDTAVYYCAREGYGGSYGEGYWGQGTLVTVSS
VL: EIVMTQSPPTLSLSPGERVTLSCRASQSVSNDLSWYQQKPGQAPRLLIYYASIRFTGIPARFSGSGYGTDFTLTISSLQPEDFAVYYCQQDYNSPWTFGQGTKVEIK
B7: h769-tm3 (humanized 769-hIgG1 variant) (antibody, V domains shown)
VH: EVQLVQSGAEVKKPGATVKISCKVSGFNIKDTYMHWVQQAPGKGLEWMGLIDPANDNTIYAEKFQGRVTITADTSTDTAYMELSSLRSEDTAVYYCAREGYGGSYGEGYWGQGTLVTVSS
VL: EIVMTQSPPTLSLSPGERVTLSCRASQSVSNDLSWYQQKPGQAPRLLIYYASIRFTGIPARFSGSGSGTDFTLTISSLQPEDFAVYFCQQDYNSPWTFGQGTKVEIK
B8: h769-IF3 (humanized 769-hIgG1 variant) (antibody, V domains shown)
VH: EVQLVQSGAEVKKPGATVKISCKVSGFNIKDTYMHWVQQAPGKGLEWMGLIDPANDNTIYAEKFQGRVTITADTSTDTAYMELSSLRSEDTAVYYCAREGYGGSYGEGYWGQGTLVTVSS
VL: EIVMTQSPPTLSLSPGERVTLSCRASQSVSNDLSWYQQKPGQAPRLLIYYASIRFTGIPARFSGSGSGTDFTLTISSLQPEDFAVYYCQQDYNSPWTFGQGTKVEIK
B9: PAL771.2 (antibody, V domains shown)
VH: EVQLQESGAELVKPGASVKLSCTASGFNIKDTYMHWVKQRPEQGLEWIGRIDPANGNTKYDPKFPGKATITADTSSNTAYLQLSSLTSEDAAVYYCARPFNYRFYDVYYFDYWGQGTTLTVST
VL: QIVLTQSPAIMSASPGEKVTMTCSASSSVSYMYWYQQKPGSSPRLLIYDTSNLASGVPLRFSGSGSGTSYSLTLSRMEAEDAATYYCQQWSTYPLTFGAGTKLELK

Biological target: T1, human PD-L1 (hPD-L1) coated on ELISA wells, Example 7 (human, UniProt Q9NZQ7 19-238)
T1 sequence (Q9NZQ7 19-238): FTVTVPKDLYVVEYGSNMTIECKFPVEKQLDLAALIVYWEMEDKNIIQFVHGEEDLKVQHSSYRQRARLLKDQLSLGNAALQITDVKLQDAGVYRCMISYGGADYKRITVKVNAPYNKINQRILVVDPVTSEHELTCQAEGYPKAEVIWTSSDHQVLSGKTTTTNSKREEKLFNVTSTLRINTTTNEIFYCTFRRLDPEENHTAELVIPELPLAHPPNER
Experiment: Blocking ELISA

Binder	IC50 [nM]
B1	1.94
B2	2.01
B3	2.93
B4	1.58
B5	4.64

Biological target: T1, human PD-L1 (hPD-L1) coated on ELISA …
Experiment: blocking ELISA (hPD1-Fc binding)

Binder	IC50 [nM]
B6	1.44
B7	1.29
B8	1.47
B4	1.57

Biological target: T1, human PD-L1 (hPD-L1) coated on ELISA …
Experiment: huPD1-Fc blocking ELISA

Binder	IC50 [nM]
B9	0.6
